Measured values as given in patent publication US20230374116A1 (ROSALIND FRANKLIN INSTITUTE, published 2023).

Assays:
Experiment in all cases: cell-based or functional assay
[1] = target: Spike protein on live SARS-CoV-2 Alpha strain (SARS-CoV-2 Alpha (B.1.1.7), UniProt P0DTC2 14-1273)
[2] = target: Spike protein on live SARS-CoV-2 Beta strain (SARS-CoV-2 Beta (B.1.351), UniProt P0DTC2 14-1273)
[3] = target: Spike protein on live SARS-CoV-2 Delta strain (SARS-CoV-2 Delta (B.1.617.2), UniProt P0DTC2 14-1273)

Binder | ND 50 MN assay, live virus [1] [nM] | ND 50 MN assay, live virus [2] [nM] | ND 50 MN assay, live virus [3] [nM]
A8 trimer (bispecific antibody) QVQLVESGGGLVQAGGSLRLSCAASGGTFSTAAMGWFRQAPGEERECVASIGWRGVRTWYADSVKGRFTISRDNPQNTVYLQMNNLKSGDTAVYYCAASVGNYGLPWAHFEYDFWGQGIQVTVSSGSGSGSQVQLVESGGGLVQAGGSLRLSCAASGGTFSTAAMGWFRQAPGEERECVASIGWRGVRTWYADSVKGRFTISRDNPQNTVYLQMNNLKSGDTAVYYCAASVGNYGLPWAHFEYDFWGQGIQVTVSSGSGSGSQVQLVESGGGLVQAGGSLRLSCAASGGTFSTAAMGWFRQAPGEERECVASIGWRGVRTWYADSVKGRFTISRDNPQNTVYLQMNNLKSGDTAVYYCAASVGNYGLPWAHFEYDFWGQGTQVTVSSKHHHHHH | 0.1 | 0.2 | 0.1
C5 trimer (VHH, also called trimeric C5 nanobody; C5-6GS-C5-6GS-C5) QVQLVESGGGSVQAGGSLTLSCVASGVTLGRHAIGWFRQAPGKERERVSCIRTFDGITSYVESTKGRFTISSNNAMNTVYLQMNSLKPEDTAVYFCALGVTAACSDNPYFWGQGTQVTVSSGSGSGSQVQLVESGGGSVQAGGSLTLSCVASGVTLGRHAIGWFRQAPGKERERVSCIRTFDGITSYVESTKGRFTISSNNAMNTVYLQMNSLKPEDTAVYFCALGVTAACSDNPYFWGQGTQVTVSSGSGSGSQVQLVESGGGSVQAGGSLTLSCVASGVTLGRHAIGWFRQAPGKERERVSCIRTFDGITSYVESTKGRFTISSNNAMNTVYLQMNSLKPEDTAVYFCALGVTAACSDNPYFWGQGTQVTVSS | 0.25 |  | 0.02
C1 trimer (VHH) QVQLVESGGGLVQPGGSLRLSCAASGFTNDFYSIAWFRQAPGKEREGVSWLSVSDNTPTYVDSVKDRFTISRHNANNTVYLQMNMLKPEDTAIYYCAAGRFAGRDTWPSSYDYWGQGTQVTVSSGSGSGSQVQLVESGGGLVQPGGSLRLSCAASGFTNDFYSIAWFRQAPGKEREGVSWLSVSDNTPTYVDSVKDRFTISRHNANNTVYLQMNMLKPEDTAIYYCAAGRFAGRDTWPSSYDYWGQGTQVTVSSGSGSGSQVQLVESGGGLVQPGGSLRLSCAASGFTNDFYSIAWFRQAPGKEREGVSWLSVSDNTPTYVDSVKDRFTISRHNANNTVYLQMNMLKPEDTAIYYCAAGRFAGRDTWPSSYDYWGQGTQVTVSS | 8.2 | 4.5 | 3.1
H3 trimer (VHH) QVQLVESGGGLVKTGGSLRLSCAASGRTFSTYSMGWFRQAPGKEREFVAGMRWTGSSTFYSDSVKGRFTVSRNNAKDTVYLHMNSLKPEDTAVYYCAITTIVRAYYTEYTEADFGSWGQGTQVTVSSGAVLAPQVQLVESGGGLVKTGGSLRLSCAASGRTFSTYSMGWFRQAPGKEREFVAGMRWTGSSTFYSDSVKGRFTVSRNNAKDTVYLHMNSLKPEDTAVYYCAITTIVRAYYTEYTEADFGSWGQGTQVTVSSGSGSGSQVQLVESGGGLVKTGGSLRLSCAASGRTFSTYSMGWFRQAPGKEREFVAGMRWTGSSTFYSDSVKGRFTVSRNNAKDTVYLHMNSLKPEDTAVYYCAITTIVRAYYTEYTEADFGSWGQGTQVTVSS | 0.6 |  | 0.3
